Results on 25 sequences are retold here after the DeepSol protein solubility set.

This data set can be described thus: soluble on expression in E. coli; label from the status in PepcDB or PDB records.
For the sequence “MPAAGQAPGPECPDVLIIGGGPAGCAAAIVLAQQGWAVTLLEKEQHPRFHIGESLLPMNIPILERLGVLEQVRDIGVLKRGADFPNDAGGYNTFRFSHALDAKADYAFQVPRAQFDQVLFARAREVGVDAREQVKVESVAFDGEQPVLQARGVDGVQQFRPRYLLDASGRDTFMGNRLKLKRANAKHQSAAVFSHFRGVTRRPGEDAGNISIYRHAHGWMWLIPLPDDVMSVGAVCYPDYMKTRKGDSEGFLLRTLALNPEVAARMADAERVAPVHATGNYAYECTRMSGPRWLLLGDAYTFVDPMFSSGVFLAMHSAERGAAMVDAVLRAPHREASLQRALSRELARGLSEFKWFIYRFTSPTMRALFAQPQNVWQVEQAVVAMLAGDVFDSPKVRRRLRVFRAIYSVTALSMLPRAWHAWRHRRRQARLGFDGDTLHRDAPLEHHHHHH”, the “soluble on expression in E. coli” value is “not soluble”.

Consider “MQEPQARIAALLRDADDILITTHANPDGDAIGSLGAMGHVLATLGKRFCLCNVSGVPSHLSWVPLPGQVYTSFDELPFQPRLAIVLDCGDEKRPGEALRAPLADLPSINIDHHQGNPLFGTVDNWVEPQRAATGEMVAEIALALGQPLAGALGECLYLALVSDTGSFSFGNTSARVLSLAAEIVGNGLDVAALTERHDNQWSFARMQLWGRLMQEMRLAFDGTVAISVIPDALIESCGARRADLEGWASQMRKVRGVRVSVMVRGNGPEGSKVSLRSTGSDDVRAVAARFGGGGHRNAAGVEMPLPPEEASRQVVAALGEQLGLDGDGASLYVLEHHHHHH”, for which the “soluble on expression in E. coli” value is “soluble”.

On to “MGHHHHHHSHSKEITVRGHNCPKPVLNFYEANFPANVMDVIARQNFTEPTAIQAQGWPVALSGLDMVGVAQTGSGKTLSYLLPAIVHINHQPFLERGDGPICLVLAPTRELAQQVQQVAAEYCRACRLKSTCIYGGAPKGPQIRDLERGVEICIATPGRLIDFLECGKTNLRRTTYLVLDEADRMLDMGFEPQIRKIVDQIRPDRQTLMWSATWPKEVRQLAEDFLKDYIHINIGALELSANHNILQIVDVCHDVEKDEKLIRLMEEIMSEKENKTIVFVETKRRCDELTRKMRRDGWPAMGIHGDKSQQERDWVLNEFKHGKAPILIATDVASRGLDVEDVKFVINYDYPNSSEDYIHRIGRTARSTKTGTAYTFFTPNNIKQVSDLISVLR”, for which the “soluble on expression in E. coli” value is on record as “not soluble”.

For the sequence “SSIEFLAVEKQKIIAKETLELYAKIAGRIGMYPVKTQLADLSFKVLDPKNFNNTLSKINQQKVFYDNEWGNFKKQLEEMLEQNQIEYRLE”, the “soluble on expression in E. coli” value was “not soluble”.

Consider “AHHHHHHGSGRIISIVSGKGGTGKTTVTANLSVALGDRGRKVLAVDGDLTMANLSLVLGVDDPDVTLHDVLAGEANVEDAIYMTQFDNVYVLPGAVDWEHVLKADPRKLPEVIKSLKDKFDFILIDCPAGLQLDAMSAMLSGEEALLVTNPEISCLTDTMKVGIVLKKAGLAILGFVLNRYGRSDRDIPPEAAEDVMEVPLLAVIPEDPAIREGTLEGIPAVKYKPESKGAKAFVKLAEEIEKLAGLKARVMY”, for which the “soluble on expression in E. coli” value was “not soluble”.

For “MSNIIARFHKIQVQDGVKVWYREAGAAGNPTILLLHGFPTSSNMFRNLIPLLAGQFHIIAPDLPGFGFTETPENYKFSFDSLCESIGYLLDTLSIEKFAMYIFDYGSPVGFRLALKFPSRITGIVTQNGNAYEEGLDDRFWGPLKEYWKSYQSDPVFVKSLIPYLEDPANVICQYHDGVPAIESVDPAAYTLDIALIQRTGQTDIQLRLFFDYQNNIKLYPAFQKFLRDSKIPVLVAWGANDTIFSVAGAEAYRKDVDNLKVVYYDTGHFALETHVVAIAEEIISMFAEN”, the “soluble on expression in E. coli” value is “soluble”.

For “MNRMMALVMAGGRGTRLAIDCEKPLLEVAGRPMIDHVLEALESATGVDGIIVVTSPHTPMTEDHVRGRHPIFRASGGGYVEDLREVLSHLEESYHEPLLVINSDLPLVRPSTIDWIISSYHSCPEPAMCVAVPDDLCRRHGLDFSGSLDGLVPCGVNILMSKNRVQEQRILEASMLELAVNINSCRDLKVLEKILGEIDGREEAHKRGREVLELEHHHHHH”, the “soluble on expression in E. coli” value is reported as “soluble”.

For “MGSDKIHHHHHHMSENPIDAFIPEDIRDLYEIHNYRNAAQVLATGCPNEFQEIIEALRVFRLTLADIRKPGGNESDIPKRISGLLRAKGWMETRIKGDLLITKVSGTIDKNLGEKDLEGMEENESDTLEKIEELKNKGQVERIVRENFLDGHKVDYVKKRVAFDLEWNSKDQTFDRDLYAFRAFHECDLIDAAILLTRSASLNAVFEKLGPELNSDGTPKTSKNGKPKLIKTKYGASTTWMGKLLYRLNACRHGGCPVLALGITPNLITDWAEYESKNT”, the “soluble on expression in E. coli” value is given as “not soluble”.

For the sequence “FDIALTGREGKKIGAAFIVGDSEEVLKRSHQIILNPYEGHEEAHRNILDRRNWESIKEFALLDGVFVIDETGIVRAAGRYLDVDGKNIDIEKGLGGRHVSAAAISRDTVAISVTVSESGGVLRVYKDAKETICMESLQPASRYV”, the “soluble on expression in E. coli” value is given as “not soluble”.

Take “MSLAKLDETLTMLKDLTDAKGIPGNEREVRQVMKSYIEPFADEVTTDRLGSLIAKKTGAENGPKIMIAGHLDEVGFMVTQITDKGFIRFQTVGGWWAQVMLAQRVTIVTKKGEITGVIGSKPPHILSPEARKKSVEIKDMFIDIGASSREEALEWGVLPGDMIVPHFEFTVMNNEKFLLAKAWDNRIGCAIAIDVLRNLQNTDHPNIVYGVGTVQEEVGLRGAKTAAHTIQPDIAFGVDVGIAGDTPGISEKEAQSKMGKGPQIIVYDASMVSHKGLRDAVVATAEEAGIPYQFDAIAGGGTDSGAIHLTANGVPALSITIATRYIHTHAAMLHRDDYENAVKLITEVIKKLDRKTVDEITYQEGGSHHHHHH”: the “soluble on expression in E. coli” value is listed as “soluble”.

Take “MAHHHHHHMSIAKKRLAQERAEWRKDHPAGFSAKYSPMSDGKGLDIMKWICKIPGKKGGLWEGGEYPLTMEFTEDYPSKPPKCKFTTVLFHPNIYPSGTVCLSILNEDEDWKPSITIKQILLGIQDLLDNPNPNSPAQAEPFLLYQQDRDSYEKKVKKQAIEFRPKD”: the “soluble on expression in E. coli” value was “not soluble”.

As for “MDPTEMRYLEEENGAMMKTFKDAVTGFATGKTSLVFIGVEQLVQNFRAKRDFFNGAHITMTKVARTHY”, the “soluble on expression in E. coli” value is recorded as “soluble”.

Turning to “MHYCDLDIAECDGVYPPSEDSFLIIEYASCSGKAIEIGCGTGIVSICFLKRGCDIEAVDISDLAVECAKDNASRNGLTLKVYRSDLFSGVSGTYDTILFNAPYIPVEGEDASWSGGRNLEVVSRFLGQAREHLSASGQIYIVLSDLTDNEGMFRMMGYDYFIIKKISFEFEAIVLYKLTLKALEHHHHHH”, the “soluble on expression in E. coli” value is given as “soluble”.

In the case of “MSLRTVLITGTTSGIGYALSELFAKKECHVILVSRNAMKLSAQKQKLENGNNRIDTITCDLEQTNAAEIIYKSIKQNGWQVDILVNNAGFNEAGLFSETDATCEQGMINLHINFVTDMMKLFIPEMIQNSHGHILNVGSTGSYIACPKDAVYAASKAYILHLSKAVHAELKGTGVTVTTLCPGSTRTEFAHKAKIEHTLLFKIFVMSPHKVALSGLRAMEKGKSVIIPGLYNKILVLCSRLLPYSFIGWMTKKMLEGHHHHHH”, the “soluble on expression in E. coli” value is “not soluble”.

As for “MGSDKIHHHHHHMISSITSSIPKDVLYAAAEWYATLYDEDCSENDRQTWQRWLHEDETHRLAWQQVEQIHARFHAVDSQLASSVLSRRGEERRRMLKLLVIASVTGGVGFSLPWDSYAADYRTGTGETRELSIETGMTVWLNTDSALNQQGNPALSQPLTFQLIKGELMLDNQTAHAARLTTPHGDLAAAAYSCQLALRYTSAHSVLSVFSGEVLLQTAVPAAQRVTAGQQVIFTRDRCSEPAPVENFRQSWRKGLLVADSMPLGQLINEISRYHNGYFHVDSAVTNLRISGVFPLHETDRLLDAIVRTLPVKVSRRFSWWVDIRPS”, the “soluble on expression in E. coli” value is “not soluble”.

As for “PGATPMSLGLFSPTILLPDSAREWPPERQRLVLLHEMAHLKHRDLLLGLVGQLGRALHWPNPLAWTGWSKLLQAREAACDETVLAAGEDPETYAHQLLAAAR”, the “soluble on expression in E. coli” value is “not soluble”.

Consider “MTYVLAESPEFYQDNVTDYTGQISSSDITNIQAAIDDVKASEQKVIFVVFLSSFDGVDPETWTQQALQANGGGNVLIYALAPEERQYGIQGGTQWTDAELDAANNAAFQALSQEDWAGSALALAESVGSSSSSSLEHHHHHH”, for which the “soluble on expression in E. coli” value was “not soluble”.

Turning to “MLLPWLFPQTKRNNFAAKVNSENQEKLLILRKEDASASSGQSELSLVQMGLKQVVASSFWLVFEFQHFKVGCNAARKFPVNGIANAQPQQCGTYRSHNGKLSIAIGHFCRIHQRAHTHFAIAKIAEFNPAVHCHHVVWHLFWRTHLGAIQLCV”, the “soluble on expression in E. coli” value is reported as “not soluble”.

As to “MSLRLYFVRHGKTQWNLEGRLQGSKGDSPLLKESIEQVSELGHYLSDTHFDLVLSSDLPRAKKTTELIMESQKTKAKITYTKDLREWQLGKLEGQKLSIIQAIYPKEMDAFRHNLANFRANNFQAESVYHTTKRVADLVRTLKDSSMKNVLLVGHGANLTASIRSLLGFEPGLLRKAGGLDNASVTILETDDCEHFTLKSWNDTSYRTQVNKISEGHHHHHH”, the “soluble on expression in E. coli” value is “soluble”.

For “MIEFSENSHRKSLIEELPRIVERGEKEAQKILDGLSKSQRITLQTNELVLPTKAIGELNKFYGQTIKTENNNEFLNRLIYGDNLLAMQAFLAGDPETGLPSMRGKIDLIYIDPPFDSKANYRTKIHLPTADVEQMPSVIEQFAYSDTWKDGTKSYLEMIVPRLVLMKELLSEKGSIYVHIDWHVGHYVKVIMDEIFGRENFVNEIVWKKTNSPKAQSKGFGTQHDVLYIYRKTPQFIFNQIKKEPDEDYLKSYVYDDNDGRGPYQTVALVAGGIQRSENRKIFEFHGVRAPWLYSLENLERFWSDGRIFKTKTGYRLKVYLKDIALRLYLIYGLTRK”, the “soluble on expression in E. coli” value is on record as “not soluble”.

On to “MAASPLVVQKTEEEWRAVLSPEQFRILRQKGTEKPGTGEYDKFFEEGIFDCVGCKTPLYKSTTKFDSGCGWPAFFEGLPGAINRTPDPDGRRTEITCAACDGHLGHVFKGEGYGNPTDERHCVNSVSISFNPAKSSSII”, for which the “soluble on expression in E. coli” value is “soluble”.

In the case of “MSLVFYGRRLTEAIEVLKQSKISIMLANKGPLIYYRRTGGFPEGPVEKALGLSSLDDLVICPVHSVQPEVSTYLLLRLRTPFIIPPRSTATIYLKAPVAAGVYVTANGEQRLVDYFGPSVFKYALYGPPAVGQVCRFYITDIFSEVPEAGPWEAVTKVVVENTSDNYVEIRNVIYPIVYAQFYIDNMGNAYLETSKLSITSSNVGVVELRNEPPISGLPTCLKTEGGLPLPFLKPAGEKIAKFLMEFGLEGHHHHHH”, the “soluble on expression in E. coli” value is “not soluble”.

On to “MGHHHHHHSHMKQVAVISGKGGTGKTTFSATIHALEGGVVADCDVDAPNLHILLKPQILKAEDFIASKKARIMPEKCSSCGLCYDLCRFGAVVAEDGYYVDEKKCEGCAFCFNVCPERAIEMENVKTGDLYVSKTEWGYFVHARLKPGEENTGRLVTEVKNRAKEIAEESNAEFLIVDSAPGVGCPVMASLTGVDAAIIVTEPTVSGLSDMLRILELCEHFRIRPFVVVNKFDLNVNIASEIESYCSENGVEFAGRVPFDKAIPEQIANLNFPFSGKAADKMVEIWKKLRE”, for which the “soluble on expression in E. coli” value was “not soluble”.

On to “MAHHHHHHMRADSVSQTRKQQPNSSALGDDGDDEGANGEVEGRPMRQCMHITDKEIVIKLQNWFCDSNEIAGEWEAAGKTESRRSGASSNLEISQTIPFHSSHKSSLGKSASSSTLRPSNTCIPADLSAPLDGAPSLEVSTTSETRKIHSARGPRADERASRPYRTPSTDAVRYCAVYLRHFATIHQQHPYENSRQEQLLPTLAPEPLTAPLVALLTPWERNFIYRDILGQTEEQVSRAMEIVEHSPNMSYTYPTPFLKVSGISRVLLVEPPAAERVALLLRVMRAAEVLQVPSLRSLCAAWCADFIVRASYGARDHFEAAALVRRCFQVQNDWSRKEMDCLKLENEWPVNEEEY”, for which the “soluble on expression in E. coli” value is given as “not soluble”.

For “AICCQVDNCGADLSKVKDYHRRHKVCEIHSKATTALVGGIMQRFCQQCSRFHVLEEFD”, the “soluble on expression in E. coli” value is recorded as “soluble”.
